In article PMC11449375 one finds stoichiometry N data, which are given here for five substances.

Assay [1] concerns the target AMC011 SOSIP.v9 (HIV-1 clade B, AMC011). Description: negative-stain EM; purified SOSIPs incubated with Adjuplex, on carbon-covered copper grids, 2% uranyl formate; 2D class averages.
For assay [2] the target is unchanged. As to the kind of experiment: native gel or EMSA; Blue Native-PAGE of the purified SOSIP.v9 proteins, 3-12% Bis-Tris NuPAGE gel, 2 ug protein, Colloidal blue stain.
Assay [3] concerns the target AMC009 SOSIP.v9 (HIV-1 clade B, AMC009). As to the kind of experiment: negative-stain EM; purified SOSIPs incubated with Adjuplex, on carbon-covered copper grids, 2% uranyl formate; 2D class averages.
Assay [4] has the same target. Description: native gel or EMSA; Blue Native-PAGE of the purified SOSIP.v9 proteins, 3-12% Bis-Tris NuPAGE gel, 2 ug protein, Colloidal blue stain.
For assay [5], the target named is TRO.11 SOSIP.v9 (HIV-1 clade B, TRO.11). As to the kind of experiment: negative-stain EM; purified SOSIPs incubated with Adjuplex, on carbon-covered copper grids, 2% uranyl formate; 2D class averages.
The target is the same in assay [6]. As to the kind of experiment: native gel or EMSA; Blue Native-PAGE of the purified SOSIP.v9 proteins, 3-12% Bis-Tris NuPAGE gel, 2 ug protein, Colloidal blue stain.
In assay [7] the target is AMC016 SOSIP.v9 (HIV-1 clade B, AMC016). Description: negative-stain EM; purified SOSIPs incubated with Adjuplex, on carbon-covered copper grids, 2% uranyl formate; 2D class averages.
For assay [8] the target is unchanged. Description: native gel or EMSA; Blue Native-PAGE of the purified SOSIP.v9 proteins, 3-12% Bis-Tris NuPAGE gel, 2 ug protein, Colloidal blue stain.
For assay [9], the target named is AMC008 SOSIP.v9 (HIV-1 clade B, AMC008). As to the kind of experiment: negative-stain EM; purified SOSIPs incubated with Adjuplex, on carbon-covered copper grids, 2% uranyl formate; 2D class averages.
For assay [10] the target is unchanged. Description: native gel or EMSA; Blue Native-PAGE of the purified SOSIP.v9 proteins, 3-12% Bis-Tris NuPAGE gel, 2 ug protein, Colloidal blue stain.

AMC011 SOSIP.v9 (complex): the stoichiometry N in [1] and in assay [2] was 3 each time.
Turning to AMC009 SOSIP.v9 (complex), the stoichiometry N in [3] and in assay [4] was 3 throughout.
For TRO.11 SOSIP.v9 (complex), the stoichiometry N in assay [5] and in assay [6] was 3 each time.
As for AMC016 SOSIP.v9 (complex), the stoichiometry N in assay [7] and in [8] was 3 in each case.
For the substance AMC008 SOSIP.v9 (complex), the stoichiometry N in assay [9] and in assay [10] was 3 throughout.
